According to publication PMC2199365:

Molecular target: nascent 77FtsQTAG27 (E. coli) (UniProt P06136)
Assay: cross-linking

UniProt P06136, sequence (P06136 1-77): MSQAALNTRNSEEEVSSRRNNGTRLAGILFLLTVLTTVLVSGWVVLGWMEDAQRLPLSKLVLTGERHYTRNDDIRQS

B1: purified signal recognition particle (SRP: Ffh and 4.5S RNA) (complex)
chain: MFDNLTDRLSRTLRNISGRGRLTEDNVKDTLREVRMALLEADVALPVVREFINRVKEKAVGHEVNKSLTPGQEFVKIVRNELVAAMGEENQTLNLAAQPPAVVLMAGLQGAGKTTSVGKLGKFLREKHKKKVLVVSADVYRPAAIKQLETLAEQVGVDFFPSDVGQKPVDIVNAALKEAKLKFYDVLLVDTAGRLHVDEAMMDEIKQVHASINPVETLFVVDAMTGQDAANTAKAFNEALPLTGVVLTKVDGDARGGAALSIRHITGKPIKFLGVGEKTEALEPFHPDRIASRILGMGDVLSLIEDIESKVDRAQAEKLASKLKKGDGFDLNDFLEQLRQMKNMGGMASLMGKLPGMGQIPDNVKSQMDDKVLVRMEAIINSMTMKERAKPEIIKGSRKRRIAAGCGMQVQDVNRLLKQFDDMQRMMKKMKKGGMAKMMRSMKGMMPPGFPGR
B1 showed a concentration of SRP at which cross-linking saturated of 0.3 µM.
